From article PMC6255772 come the findings set out here.

One assay concerns the target IGF-TRAP-3.3 (human) (UniProt P08069). Kind of assay: SPR; BioRad ProteOn, GLC chip; about 1200 RU IGF-TRAP captured on immobilised goat anti-human Fc antibody; ligands 320-3.95 nM injected in triplicates, 120 s association, 600 s dissociation; PBST, 25 °C; 1:1 binding model.
The target in the next assay is IGF-TRAP-3.1 (human) (UniProt P08069). Described as above.
Assay [1] concerns the target recombinant human IGF-2 (human). Nature of the assay: SPR; competition with immobilized MEDI-573. To be noted: Fc fusion.

Consider human insulin (ligand), for which the fold lower affinity than for the IGF ligands with IGF-TRAP-3.3 (human) and with IGF-TRAP-3.1 (human) was 1000 fold in each case. In the case of “IGF-TRAP-3.3 (from UniProt P08069 31-736; P08069 741-935; P01857 1-328)”, the IC50 in assay [1] is 6.44 nM.

In general, IC50 refers to the concentration needed to halve the response being measured.
